Data from patent US20050214219A1, “24p3 receptors and uses thereof” (priority 2003, published 2005).
Where a name gives a salt, the structure may show the parent alone.

Legend:
HIFIα and Nip3 = experiment: expression of HIFIα and Nip3 (response to decreased intracellular iron); assay type: cell-based
Procedure: It is well established that iron chelators can induce apoptosis. […] To examine this possibility, the expression of two genes, HIFIα and Nip3, was analyzed. The two genes are unregulated in response to decreased intracellular iron concentration. As a control, cells were treated with the bacterial siderophore desferrioxamine (DFO), an iron chelator, and analyzed in parallel.

[1] = system: calcein-loaded HeLa cells; experiment: intracellular iron in living cells with iron-sensing dye calcein; assay type: cell-based; details: for calcein fluorescence (inverse to intracellular iron level): calcein-loaded HeLa cells expressing 24p3 receptor, FIG. 3
Procedure: In this particular example, intracellular iron levels were measured in living cells using the iron-sensing dye calcein. Calcein is a fluorescent, cell permeable dye. Because its fluorescence is quenched upon iron binding, calcein can be used to measure free (also called labile or chelatable) iron in living cells.

24p3-mediated apoptosis = experiment: ability of holo-transferrin to block 24p3-mediated apoptosis; assay type: cell-based
Excerpt: If the basis of 24p3-mediated apoptosis is in fact decreased intracellular iron concentration, then apoptosis should be prevented by iron delivery. To test this prediction, the ability of holo-transferrin to block 24p3-mediated apoptosis was examined.

[2] = system: HeLa/24p3R-L, HeLa/24p3R-S, or HeLa/X7 cells; experiment: intracellular iron monitored by expression of iron-regulated genes ferritin and transferrin receptor 1; assay type: cell-based
Procedure: Experiments were performed to determine whether 24p3R expression would confer on cells the ability to deliver iron in a 24p3-dependent fashion. In these experiments, as well as those described below, three preparations of 24p3 were used: bacterially derived iron-loaded 24p3 (holo-24p3), bacterially derived iron-lacking 24p3 (apo-24p3), and conditioned medium (CM) from cytokine-deprived FL5.12 cells, which contains 24p3 (FL5.12-24p3). The three preparations of 24p3 were added to HeLa/24p3R-L, HeLa/24p3R-S, or HeLa/X7 cells, and, as a control, iron-containing transferrin (holo-transferrin) was added in parallel samples. To monitor intracellular iron concentration, the expression of two iron-regulated genes, ferritin and transferrin receptor 1 were examined.

[3] = system: 32D cells or 32D/BCR-ABL^p190 cells; experiment: cellular ligand-uptake of fluorescently derivatized 24p3 by fluorescence microscopy; assay type: cell-based, mouse
Procedure: A cellular ligand-uptake experiment was performed in which 24p3 was fluorescently derivatized, added to 32D cells or 32D/BCR-ABL^p190 cells, and 24p3 internalization analyzed by fluorescence microscopy.

24p3R [4] = experiment: ligand-cell binding of 32P-labeled 24p3 to HeLa cells ectopically expressing 24p3R; design: species or system murine
Excerpt: HeLa cells expressed only low levels of 24p3R. To perform functional experiments HeLa cell lines were derived that stably express recombinant N-terminal epitope-tagged derivatives of 24p3R-L and 24p3R-S (HeLa/24p3R-L and HeLa/24p3R-S) and, as a control, the empty expression vector (HeLa/X7). Immunoblot analysis confirmed expression of 24p3R in HeLa/24p3R-L and HeLa/24p3R-S cells.
To determine whether the ectopically expressed 24p3R was able to bind 24p3, a series of ligand-cell binding experiments were performed. […] Binding of ^32P-labeled 24p3 to HeLa/24p3R-L and HeLa/24p3R-S was saturable and blocked by the addition of an excess of unlabeled 24p3. […] Thus, ectopically expressed 24p3R can bind to 24p3.

24p3R [5] = experiment: Internalization assay of 32P-24p3; assay type: cell-based, murine
Procedure: HeLa cells constitutively expressing 24p3R were treated with ^32P-24p3 and at various time points cells were washed three times with PBS and incubated for 15 minutes in proteinase K, trypsin, and EDTA solution to remove the extracellular portion of the receptor. The dislodged cells were then collected and counted.
24p3 and other lipocalins are internalized following binding to their cell surface receptor. […] Thus, cells ectopically expressing 24p3R can be used as reagents for examining the function of 24p3 and 24p3R as well as in assays to identify compounds that affect expression or activity of a 24p3R or a 24p3 (e.g., 24p3 or NGAL).

[6] = system: HeLa/24p3R-L, HeLa/24p3R-S, or HeLa/X7 cells; experiment: 24p3-dependent apoptosis by annexin V-FITC staining; assay type: cell-based; details: for apoptosis (annexin V-FITC staining; confirmed by PARP and caspase 3 cleavage): HeLa/24p3R-L and HeLa/24p3R-S cells
Procedure: To examine the ability of 24p3R to mediate 24p3-dependent apoptosis, different preparations of 24p3 were added to the three HeLa cell lines described above and apoptosis was analyzed by annexin V-FITC staining. […] Apoptosis was confirmed by analyzing proteolytic cleavage of PARP (poly(ADP-ribose)polymerase) and caspase 3.

[7] = system: HeLa/24p3R-L, HeLa/24p3R-S, or HeLa/X7 cells; experiment: colorimetric determination of intracellular free (non-haem) iron concentration; assay type: cell-based
Procedure: Colorimetric determination of intracellular non-haem iron concentration was measured as described by Leardi et al., (1998, Br. J. Haematol., 102:746-752) with modifications. Briefly, cells were washed twice with ice-cold PBS and then lysed with lysis buffer (1% TRITON™-X100, 10% glycerol. 25 mM HEPES, pH 7.4, in PBS) and incubated with 0.3 N HCl. The proteins in the lysates were precipitated with 10% TCA (trichloroacetic acid) and centrifuged at 1200×g for 15 minutes. The lysates were then mixed with iron chromogen, FERROZINE® (Sigma) in iron buffer reagent (1.5% hydroxylamine HCl in acetate buffer, pH 4.5) and the absorbance was measured spectrophotometrically at 560 nm. The non-heme iron concentration was measured by interpolating the absorbance of each sample using preset iron standards (Sigma) and expressed as mg/dL.
To confirm the results disclosed above, a […] assay that directly measures free iron concentration was employed.

[8] = HeLa/24p3R-L and HeLa/24p3R-S cells

24p3R, sequence (as listed by the source): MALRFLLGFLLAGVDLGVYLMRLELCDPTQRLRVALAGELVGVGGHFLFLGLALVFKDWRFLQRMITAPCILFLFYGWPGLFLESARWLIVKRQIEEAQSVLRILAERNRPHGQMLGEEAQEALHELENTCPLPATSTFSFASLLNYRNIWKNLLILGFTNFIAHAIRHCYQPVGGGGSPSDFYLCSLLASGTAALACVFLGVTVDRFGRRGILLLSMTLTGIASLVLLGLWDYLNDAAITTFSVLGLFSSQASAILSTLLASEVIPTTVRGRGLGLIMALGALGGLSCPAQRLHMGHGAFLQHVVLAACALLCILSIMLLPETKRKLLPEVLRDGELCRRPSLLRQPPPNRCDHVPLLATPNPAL

CC(=O)N(O)CCCCCNC(=O)CCC(=O)N(O)CCCCCNC(=O)CCC(=O)N(O)CCCCCN [DFO, deferoxamine mesylate, reference compound]
expression of HIFIα and Nip3 (HIFIα and Nip3; all three HeLa cell lines): induced expression of HIFIα and Nip3 | calcein fluorescence (inverse to intracellular iron level) [1]: large increase in fluorescence emission | intracellular iron levels (calcein) ([1]; control HeLa cells (HeLa/X7)): altered iron levels

holo-transferrin: iron-containing transferrin, used as control [reference compound]
effect on apoptosis by 24p3 (24p3-mediated apoptosis): blocked apoptosis by 24p3 | effect on apoptosis induced by other agents (24p3-mediated apoptosis; apoptosis induced by etoposide or staurosporine): had no effect | intracellular iron concentration (ferritin / transferrin receptor 1 expression) ([2]; all three HeLa cell lines): increased iron concentration | levels of ferritin ([2]; all three HeLa cell lines): increased levels of ferritin | levels of transferrin receptor 1 ([2]; all three HeLa cell lines): decreased levels of transferrin receptor 1

B1: 24p3: recombinant mouse lipocalin 24p3, ligand of 24p3R; used 32P-labeled or fluorescently derivatized (protein)
chain: QDSTQNLIPAPSLLTVPLQPDFRSDQFRGRWYVVGLAGNAVQKKTEGSFTMYSTIYELQENNSYNVTSILVRDQDQGCRYWIRTFVPSSRAGQFTLGNMHRYPQVQSYNVQVATTDYNQFAMVFFRKTSENKQYFKITLYGRTKELSPELKERFTRFAKSLGLKDDNIIFSVPTDQCIDN
internalization of fluorescently labeled 24p3 ([3]; 32D cells): internalized | internalization of fluorescently labeled 24p3 ([3]; 32D/BCR-ABL^p190 cells): not 32D/BCR-ABL^p190 cells | binding of 32P-labeled 24p3 to cells (24p3R [4]; [8]): bound to HeLa/24p3R-L and HeLa/24p3R-S cells | binding of 32P-labeled 24p3 to cells (24p3R [4]; HeLa/X7 cells (empty vector control)): not to HeLa/X7 cells | internalization of 32P-labeled 24p3 (24p3R [5]; [8]): internalized by HeLa/24p3R-L and HeLa/24p3R-S cells | internalization of 32P-labeled 24p3 (24p3R [5]; HeLa/X7 cells): not by HeLa/X7 cells

B2: apo-24p3: bacterially derived iron-lacking 24p3 (protein)
chain: B1 chain
apoptosis (annexin V-FITC staining; confirmed by PARP and caspase 3 cleavage) [6]: induced apoptosis | apoptosis (annexin V-FITC staining) ([6]; HeLa/X7 cells): not in HeLa/X7 cells | free iron concentration (colorimetric assay) [7, 8]: substantially reduced free iron concentration | intracellular iron concentration (ferritin / transferrin receptor 1 expression) ([2]; all three HeLa cell lines): did not increase intracellular iron | HIFIα levels and Nip3 transcription (HIFIα and Nip3; HeLa/24p3R-S cells): increased HIFα levels and Nip3 transcription | calcein fluorescence (inverse to intracellular iron level) [1]: large increase in fluorescence emission

B3: holo-24p3: bacterially derived iron-loaded 24p3 (protein)
chain: B1 chain
apoptosis (annexin V-FITC staining; confirmed by PARP and caspase 3 cleavage) [6]: failed to induce apoptosis | free iron concentration (colorimetric assay) [7, 8]: increased intracellular iron | free iron concentration (colorimetric assay) ([7]; HeLa/X7 cells): not in HeLa/X7 cells | intracellular iron concentration (ferritin / transferrin receptor 1 expression) [2, 8]: increased intracellular iron concentration | intracellular iron concentration (ferritin / transferrin receptor 1 expression) ([2]; HeLa/X7 cells): not in HeLa/X7 cells | calcein fluorescence (inverse to intracellular iron level) [1]: decrease in fluorescence intensity
